Assay results: patent US20090304754

Key:
[1] = molecular target: Flavobacterium meningosepticum prolyl endopeptidase, unmodified (UniProt P27028)
[2] = molecular target: Flavobacterium meningosepticum prolyl endopeptidase conjugated with 20,000 Da PEG (UniProt P27028)
[3] = molecular target: T1, 26mer peptide derived from gamma-gliadin
T1 chain: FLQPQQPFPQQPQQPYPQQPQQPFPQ

chymotrypsin
kcat/KM of chymotrypsin-catalyzed proteolysis of FM PEP (loss of PEP activity, Michaelis-Menten fit) [1]: The chymotrypsin proteolysis exhibited a kcat/KM of 5.0 for the unmodified PEP

trypsin
kcat/KM of trypsin-catalyzed proteolysis of FM PEP (loss of PEP activity, Michaelis-Menten fit) [2]: a kcat/KM of 3.4 was obtained for the PEGylated PEP | kcat/KM of trypsin-catalyzed proteolysis of FM PEP (loss of PEP activity, Michaelis-Menten fit) [1]: a kcat/KM of 11.7 M^-1 sec-1 was obtained for unmodified PEP

B1: Flavobacterium meningosepticum prolyl endopeptidase, unmodified (protein)
chain: QNSNVLKYPETKKVSHTDTYFGTQVSDPYRWLEDDRAEDTKAWVQQEVKFTQDYLAQIPFRDQLKKQLMDIWNYEKISAPFKKGKYTYFSKNDGLQAQSVLYRKDAAGKTEVFLDPNKFSEKGTTSLASVSFNKKGTLVAYSISEGGSDWNKIIILDAETKKQLDETLLDVKFSGISWLGDEGFFYSSYDKPKEGSVLSGMTDKHKVYFHKLGTKQSQDELIIGGDKFPRRYIGAYVTDDQRYLVVSAANATNGNELYIKDLKNKTDFIPIITGFDSNVNVADTDGDTLYLFTDKDAPNKRLVKTTIQNPKAETWKDVIAETSEPLEINTGGGYFFATYMKDAIDQVKQYDKNGKLVRAIKLPGSGNASGFGGEKTEKDLYYSFTNYITPPTIFKYNVTTGNSEVYQKPKVKFNPENYVSEQVFYTSSDGTKIPMMISYKKGLKKDGKNPTILYSYGGFNISLQPAFSVVNAIWMENGGIYAVPNIRGGGEYGKKWHDAGTKMQKKNVFNDFIAAGEYLQKNGYTSKEYMALSGRSNGGLLVGATMTMRPDLAKVAFPGVGVLDMLRYNKFTAGAGWAYDYGTAEDSKEMFEYLKSYSPVHNVKAGTCYPSTMVITSDHDDRVVPAHSFKFGSELQAKQSCKNPILIRIETNAGHGAGRSTEQVVAENADLLSFALYEMGIKSLK
time course of cleavage of the 26mer peptide, HPLC [3]: PEGylated enzymes are able to cleave longer substrates at rates comparable to unmodified enzyme

B2: Flavobacterium meningosepticum prolyl endopeptidase conjugated with 20,000 Da PEG (protein)
chain: QNSNVLKYPETKKVSHTDTYFGTQVSDPYRWLEDDRAEDTKAWVQQEVKFTQDYLAQIPFRDQLKKQLMDIWNYEKISAPFKKGKYTYFSKNDGLQAQSVLYRKDAAGKTEVFLDPNKFSEKGTTSLASVSFNKKGTLVAYSISEGGSDWNKIIILDAETKKQLDETLLDVKFSGISWLGDEGFFYSSYDKPKEGSVLSGMTDKHKVYFHKLGTKQSQDELIIGGDKFPRRYIGAYVTDDQRYLVVSAANATNGNELYIKDLKNKTDFIPIITGFDSNVNVADTDGDTLYLFTDKDAPNKRLVKTTIQNPKAETWKDVIAETSEPLEINTGGGYFFATYMKDAIDQVKQYDKNGKLVRAIKLPGSGNASGFGGEKTEKDLYYSFTNYITPPTIFKYNVTTGNSEVYQKPKVKFNPENYVSEQVFYTSSDGTKIPMMISYKKGLKKDGKNPTILYSYGGFNISLQPAFSVVNAIWMENGGIYAVPNIRGGGEYGKKWHDAGTKMQKKNVFNDFIAAGEYLQKNGYTSKEYMALSGRSNGGLLVGATMTMRPDLAKVAFPGVGVLDMLRYNKFTAGAGWAYDYGTAEDSKEMFEYLKSYSPVHNVKAGTCYPSTMVITSDHDDRVVPAHSFKFGSELQAKQSCKNPILIRIETNAGHGAGRSTEQVVAENADLLSFALYEMGIKSLK
time course of cleavage of the 26mer peptide, HPLC (disappearance of the intact 26mer peak) [3]: both the 5 kDa and 20 kDa PEGylated FM PEPs were 8-12% faster in cleaving the peptide than the unmodified FM PEP

B3: Flavobacterium meningosepticum prolyl endopeptidase conjugated with 5000 Da PEG (protein)
chain: QNSNVLKYPETKKVSHTDTYFGTQVSDPYRWLEDDRAEDTKAWVQQEVKFTQDYLAQIPFRDQLKKQLMDIWNYEKISAPFKKGKYTYFSKNDGLQAQSVLYRKDAAGKTEVFLDPNKFSEKGTTSLASVSFNKKGTLVAYSISEGGSDWNKIIILDAETKKQLDETLLDVKFSGISWLGDEGFFYSSYDKPKEGSVLSGMTDKHKVYFHKLGTKQSQDELIIGGDKFPRRYIGAYVTDDQRYLVVSAANATNGNELYIKDLKNKTDFIPIITGFDSNVNVADTDGDTLYLFTDKDAPNKRLVKTTIQNPKAETWKDVIAETSEPLEINTGGGYFFATYMKDAIDQVKQYDKNGKLVRAIKLPGSGNASGFGGEKTEKDLYYSFTNYITPPTIFKYNVTTGNSEVYQKPKVKFNPENYVSEQVFYTSSDGTKIPMMISYKKGLKKDGKNPTILYSYGGFNISLQPAFSVVNAIWMENGGIYAVPNIRGGGEYGKKWHDAGTKMQKKNVFNDFIAAGEYLQKNGYTSKEYMALSGRSNGGLLVGATMTMRPDLAKVAFPGVGVLDMLRYNKFTAGAGWAYDYGTAEDSKEMFEYLKSYSPVHNVKAGTCYPSTMVITSDHDDRVVPAHSFKFGSELQAKQSCKNPILIRIETNAGHGAGRSTEQVVAENADLLSFALYEMGIKSLK
time course of cleavage of the 26mer peptide, HPLC (disappearance of the intact 26mer peak) [3]: both the 5 kDa and 20 kDa PEGylated FM PEPs were 8-12% faster in cleaving the peptide than the unmodified FM PEP
